Values of other authors in paper PMC3090270 (Structure (London, England : 1993), 2010).

Test system: RI subunits
Conditions: ref Huang et al., 1997b (D-AKAP1), 1997a (D-AKAP2), Reinton et al., 2000 (AKAP220), Gronholm et al., 2003 (Merlin), Li et al., 2001 (Pap7)

Molecule	binding to RI subunits (dual-specific)
Pap7: AKAP shown to bind RI subunits (protein, UniProt Q9H3P7 1-528, looked up) Golgi resident protein GCP60: MAAVLNAERLEVSVDGLTLSPDPEERPGAEGAPLLPPPLPPPSPPGSGRGPGASGEQPEPGEAAAGGAAEEARRLEQRWGFGLEELYGLALRFFKEKDGKAFHPTYEEKLKLVALHKQVLMGPYNPDTCPEVGFFDVLGNDRRREWAALGNMSKEDAMVEFVKLLNRCCHLFSTYVASHKIEKEEQEKKRKEEEERRRREEEERERLQKEEEKRRREEEERLRREEEERRRIEEERLRLEQQKQQIMAALNSQTAVQFQQYAAQQYPGNYEQQQILIRQLQEQHYQQYMQQLYQVQLAQQQAALQKQQEVVVAGSSLPTSSKVNATVPSNMMSVNGQAKTHTDSSEKELEPEAAEEALENGPKESLPVIAAPSMWTRPQIKDFKEKIQQDADSVITVGRGEVVTVRVPTHEEGSYLFWEFATDNYDIGFGVYFEWTDSPNTAVSVHVSESSDDDEEEEENIGCEEKAKKNANKPLLDEIVPVYRRDCHEEVYAGSHQYPGRGVYLLKFDNSYSLWRSKSVYYRVYYTR	bind RI subunits
D-AKAP1: dual-specific AKAP (protein, UniProt Q92667 30-903, looked up) A-kinase anchor protein 1, …: KGHVSSHDEQQVEAGAVQLRADPAIKEPLPVEDVCPKVVSTPPSVTEPPEKELSTVSKLPAEPPALLQTHPPCRRSESSGILPNTTDMRLRPGTRRDDSTKLELALTGGEAKSIPLECPLSSPKGVLFSSKSAEVCKQDSPFSRVPRKVQPGYPVVPAEKRSSGERARETGGAEGTGDAVLGEKVLEEALLSREHVLELENSKGPSLASLEGEEDKGKSSSSQVVGPVQEEEYVAEKLPSRFIESAHTELAKDDAAPAPPVADAKAQDRGVEGELGNEESLDRNEEGLDRNEEGLDRNEESLDRNEEGLDRNEEIKRAAFQIISQVISEATEQVLATTVGKVAGRVCQASQLQGQKEESCVPVHQKTVLGPDTAEPATAEAAVAPPDAGLPLPGLPAEGSPPPKTYVSCLKSLLSSPTKDSKPNISAHHISLASCLALTTPSEELPDRAGILVEDATCVTCMSDSSQSVPLVASPGHCSDSFSTSGLEDSCTETSSSPRDKAITPPLPESTVPFSNGVLKGELSDLGAEDGWTMDAEADHSGGSDRNSMDSVDSCCSLKKTESFQNAQAGSNPKKVDLIIWEIEVPKHLVGRLIGKQGRYVSFLKQTSGAKIYISTLPYTQSVQICHIEGSQHHVDKALNLIGKKFKELNLTNIYAPPLPSLALPSLPMTSWLMLPDGITVEVIVVNQVNAGHLFVQQHTHPTFHALRSLDQQMYLCYSQPGIPTLPTPVEITVICAAPGADGAWWRAQVVASYEETNEVEIRYVDYGGYKRVKVDVLRQIRSDFVTLPFQGAEVLLDSVMPLSDDDQFSPEADAAMSEMTGNTALLAQVTSYSPTGLPLIQLWSVVGDEVVLINRSLVERGLAQWVDSYYTSL	bind RI subunits
Merlin: AKAP shown to bind RI subunits (protein, UniProt P35240 1-595, looked up) Merlin: MAGAIASRMSFSSLKRKQPKTFTVRIVTMDAEMEFNCEMKWKGKDLFDLVCRTLGLRETWFFGLQYTIKDTVAWLKMDKKVLDHDVSKEEPVTFHFLAKFYPENAEEELVQEITQHLFFLQVKKQILDEKIYCPPEASVLLASYAVQAKYGDYDPSVHKRGFLAQEELLPKRVINLYQMTPEMWEERITAWYAEHRGRARDEAEMEYLKIAQDLEMYGVNYFAIRNKKGTELLLGVDALGLHIYDPENRLTPKISFPWNEIRNISYSDKEFTIKPLDKKIDVFKFNSSKLRVNKLILQLCIGNHDLFMRRRKADSLEVQQMKAQAREEKARKQMERQRLAREKQMREEAERTRDELERRLLQMKEEATMANEALMRSEETADLLAEKAQITEEEAKLLAQKAAEAEQEMQRIKATAIRTEEEKRLMEQKVLEAEVLALKMAEESERRAKEADQLKQDLQEAREAERRAKQKLLEIATKPTYPPMNPIPAPLPPDIPSFNLIGDSLSFDFKDTDMKRLSMEIEKEKVEYMEKSKHLQEQLNELKTEIEALKLKERETALDILHNENSDRGGSSKHNTIKKLTLQSAKSRVAFFEEL	bind RI subunits
